Test in all cases: cryo-EM structure
The target in assay [1] is T1, TFIIIC subunit τ95 (S. cerevisiae, UniProt P32367 1-649).
T1 sequence (looked up): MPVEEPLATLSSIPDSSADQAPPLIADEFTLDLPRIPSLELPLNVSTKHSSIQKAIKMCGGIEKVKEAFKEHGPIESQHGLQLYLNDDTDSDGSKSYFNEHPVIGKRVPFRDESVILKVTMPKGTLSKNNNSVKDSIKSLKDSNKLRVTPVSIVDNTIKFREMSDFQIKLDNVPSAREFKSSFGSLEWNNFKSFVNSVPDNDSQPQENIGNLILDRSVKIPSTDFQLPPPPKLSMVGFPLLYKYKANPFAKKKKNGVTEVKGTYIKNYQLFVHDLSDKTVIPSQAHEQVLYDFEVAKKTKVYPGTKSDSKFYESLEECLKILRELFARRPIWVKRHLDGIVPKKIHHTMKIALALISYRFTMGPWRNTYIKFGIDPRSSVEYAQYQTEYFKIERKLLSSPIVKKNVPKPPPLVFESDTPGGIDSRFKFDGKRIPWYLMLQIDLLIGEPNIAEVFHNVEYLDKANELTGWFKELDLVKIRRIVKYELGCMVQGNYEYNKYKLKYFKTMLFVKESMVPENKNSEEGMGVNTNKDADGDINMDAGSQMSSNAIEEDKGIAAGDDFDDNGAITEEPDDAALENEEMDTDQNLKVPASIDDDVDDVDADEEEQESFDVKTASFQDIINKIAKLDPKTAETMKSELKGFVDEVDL

Assay [2] addresses T2, TFIIIC subunit τ138 (S. cerevisiae, UniProt P34111 1-1160).
T2 sequence (looked up): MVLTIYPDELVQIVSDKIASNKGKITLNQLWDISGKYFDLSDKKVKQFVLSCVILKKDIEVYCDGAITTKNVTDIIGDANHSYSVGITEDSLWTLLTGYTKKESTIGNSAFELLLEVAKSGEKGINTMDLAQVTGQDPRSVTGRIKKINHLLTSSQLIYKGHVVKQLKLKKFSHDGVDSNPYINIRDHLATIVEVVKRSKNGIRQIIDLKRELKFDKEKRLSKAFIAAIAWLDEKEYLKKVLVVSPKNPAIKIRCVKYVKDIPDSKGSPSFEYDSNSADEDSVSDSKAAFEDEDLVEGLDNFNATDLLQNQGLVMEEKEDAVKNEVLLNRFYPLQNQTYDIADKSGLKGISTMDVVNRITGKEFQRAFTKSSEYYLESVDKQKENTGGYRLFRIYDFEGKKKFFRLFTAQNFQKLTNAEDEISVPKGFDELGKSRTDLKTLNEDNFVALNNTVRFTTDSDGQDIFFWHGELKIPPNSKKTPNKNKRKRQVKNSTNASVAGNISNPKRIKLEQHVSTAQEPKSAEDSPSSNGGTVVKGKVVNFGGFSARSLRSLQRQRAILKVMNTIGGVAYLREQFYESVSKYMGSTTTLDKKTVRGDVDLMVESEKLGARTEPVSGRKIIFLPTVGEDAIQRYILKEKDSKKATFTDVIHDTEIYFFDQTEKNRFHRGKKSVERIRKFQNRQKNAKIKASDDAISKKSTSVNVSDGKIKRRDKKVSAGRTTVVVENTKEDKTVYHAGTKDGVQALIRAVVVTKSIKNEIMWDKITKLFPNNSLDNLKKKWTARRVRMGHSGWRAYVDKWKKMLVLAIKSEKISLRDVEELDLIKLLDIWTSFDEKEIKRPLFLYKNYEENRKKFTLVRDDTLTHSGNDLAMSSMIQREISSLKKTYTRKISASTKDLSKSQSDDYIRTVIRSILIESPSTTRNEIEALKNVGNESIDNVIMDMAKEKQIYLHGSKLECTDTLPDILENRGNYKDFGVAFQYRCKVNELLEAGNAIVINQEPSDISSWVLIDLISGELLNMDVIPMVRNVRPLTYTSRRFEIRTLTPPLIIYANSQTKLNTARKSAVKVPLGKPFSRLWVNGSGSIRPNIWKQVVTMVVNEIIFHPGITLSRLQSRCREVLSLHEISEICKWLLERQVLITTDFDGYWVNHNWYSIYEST

Assay [3] concerns the target T3, TFIIIC subunit τ91 (S. cerevisiae, UniProt Q06339 1-672).
T3 sequence (looked up): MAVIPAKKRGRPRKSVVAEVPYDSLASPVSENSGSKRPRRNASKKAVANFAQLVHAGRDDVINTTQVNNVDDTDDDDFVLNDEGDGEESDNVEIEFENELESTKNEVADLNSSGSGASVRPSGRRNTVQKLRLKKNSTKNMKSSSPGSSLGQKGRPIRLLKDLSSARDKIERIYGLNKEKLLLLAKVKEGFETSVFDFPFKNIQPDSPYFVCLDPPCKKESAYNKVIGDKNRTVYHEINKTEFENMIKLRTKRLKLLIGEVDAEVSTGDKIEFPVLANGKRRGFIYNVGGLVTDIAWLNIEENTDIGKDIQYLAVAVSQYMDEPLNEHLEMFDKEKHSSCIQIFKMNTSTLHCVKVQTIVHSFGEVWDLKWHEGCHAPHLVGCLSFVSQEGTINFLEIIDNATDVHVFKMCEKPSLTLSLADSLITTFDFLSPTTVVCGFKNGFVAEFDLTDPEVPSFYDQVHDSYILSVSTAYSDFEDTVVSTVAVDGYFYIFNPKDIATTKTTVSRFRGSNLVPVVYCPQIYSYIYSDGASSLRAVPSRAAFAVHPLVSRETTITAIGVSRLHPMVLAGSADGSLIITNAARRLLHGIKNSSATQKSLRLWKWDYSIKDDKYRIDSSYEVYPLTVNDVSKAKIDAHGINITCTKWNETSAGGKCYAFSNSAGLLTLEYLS

B1: TFIIIC subunit τ55 (natural protein, S. cerevisiae, UniProt Q12415 1-435, looked up)
chain: MVVNTIYIARHGYRSNWLPEGPYPDPLTGIDSDVPLAEHGVQQAKELAHYLLSLDNQPEAAFASPFYRCLETVQPIAKLLEIPVYLERGIGEWYRPDRKPVIPVPAGYEILSKFFPGVISQEWDSTLTPNEKGETEQEMYMRFKKFWPLFIERVEKEYPNVECILLVTHAASKIALGMSLLGYDNPRMSLNENGDKIRSGSCSLDKYEILKKSYDTIDETDDQTSFTYIPFSDRKWVLTMNGNTEFLSSGEEMNWNFDCVAEAGSDADIKKRQMTKKTSSPIPEADDQTEVETVYISVDIPSGNYKERTEIAKSAILQYSGLETDAPLFRIGNRLYEGSWERLVGTELAFPNAAHVHKKTAGLLSPTEENETTNAGQSKGSSTANDPNIQIQEEDVGLPDSTNTSRDHTGDKEEVQSEKIYRIKERIVLSNVRPM
Turning to B1, the binding result in assay [1] and in assay [2] was “binds” in each case.

B2: TFIIIC subunit τ60 (natural protein, S. cerevisiae)
chain: MKLLKDLLVDRKEFEDWKNNLTWARDGTLYLTTFPDISIGQPKYAKDINCNSKNLFHVKEFPLEFENKLDFELAQQNGLLNSQPVCYPRVCKPSPIDDWMAVLSNNGNVSVFKDNKMLTNLDSKGNLSSRTYHCFEWNPIESSIVVGNEDGELQFFSIRKNSENTPEFYFESSIRLSDAGSKDWVTHIVWYEDVLVAALSNNSVFSMTVSASSHQPVSRMIQNASRRKITDLKIVDYKVVLTCPGYVHKIDLKNYSISSLKTGSLENFHIIPLNHEKESTILLMSNKTSYKVLLEDELHVTADNIIAPYLEKKFKKWSTIWNEFNNYETTLVIHGISLSPDGYSIAIVYDMERVAFKYKIASEQSFNIMFAPLYHTWTISERAVGLAWYQTYQIYNQSLPKLPENFSMNKKLLNGNYPISLDFQSYLNALMKSEEMRIIMFLNMTIDKPSILSFLEALYEYAINKKSELTNSFDLACVLSIAAILKREAPIYNGTLLMKNSFLEETFNLESFTADPETVTSTTNNTWKRCGVTLLPILTTHVKICPVSKQRVIDIKRDDLNDYGWFTRGLLERFNEISVYCGTTLEVM
In the case of B2, the binding result in assay [3] and in assay [2] was “binds” throughout.

The values are drawn from publication PMC10528418 (Molecular cell, 2023).
